From patent publication US20260151504A1, “SYNTHETIC CELLS COMPRISING TNF-RELATED APOPTOSIS-INDUCING LIGAND (TRAIL) AND METHODS OF USING THE SAME” (Slingshot Biosciences, Inc., priority 2023, published 2026)
Values belong to the substance of their own block, whether it stands above or below them.

Legend:
[1] = target: TRAIL receptors DR4 and/or DR5; test: cell-based or functional assay
streptavidin [2] = target: streptavidin (UniProt P22629); test: flow cytometry, antibody staining of STV magnetic beads, BD Quantibrite PE standard curve
streptavidin [3] = target: streptavidin (UniProt P22629); test: flow cytometry, antibody staining of STV porous hydrogel microspheres, BD Quantibrite PE standard curve
streptavidin [4] = target: streptavidin (UniProt P22629); test: flow cytometry, antibody staining of STV smooth hydrogel microspheres, BD Quantibrite PE standard curve

Chain of streptavidin (P22629 37-163 limits assumed): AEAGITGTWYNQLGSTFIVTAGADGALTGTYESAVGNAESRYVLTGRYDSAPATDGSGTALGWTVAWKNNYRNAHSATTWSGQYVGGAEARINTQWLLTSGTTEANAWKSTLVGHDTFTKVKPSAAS

Early Stage Apoptotic (7-AAD-/Annexin V+), Jeko-1, 24 Hrs.; TRAIL Magnetic Beads [1]: 25.8%
Early Stage Apoptotic (7-AAD-/Annexin V+), Jeko-1, 24 Hrs.; TRAIL Porous Hydrogels [1]: 52.1%
Early Stage Apoptotic (7-AAD-/Annexin V+), Jeko-1, 24 Hrs.; TRAIL Smooth Hydrogels [1]: 44.8%
Early Stage Apoptotic (7-AAD-/Annexin V+), Jeko-1, 24 Hrs.; TRAIL encapsulated PLGA [1]: 3.08%
Early Stage Apoptotic (7-AAD-/Annexin V+), Jeko-1, 48 Hrs.; TRAIL Magnetic Beads [1]: 6.55%
Early Stage Apoptotic (7-AAD-/Annexin V+), Jeko-1, 48 Hrs.; TRAIL Porous Hydrogels [1]: 5.77%
Early Stage Apoptotic (7-AAD-/Annexin V+), Jeko-1, 48 Hrs.; TRAIL Smooth Hydrogels [1]: 11.9%
Early Stage Apoptotic (7-AAD-/Annexin V+), Jeko-1, 48 Hrs.; TRAIL encapsulated PLGA [1]: 3.07%
Early Stage Apoptotic (7-AAD-/Annexin V+), Jurkat, 24 Hrs.; TRAIL Magnetic Beads [1]: 22.3%
Early Stage Apoptotic (7-AAD-/Annexin V+), Jurkat, 24 Hrs.; TRAIL Porous Hydrogels [1]: 41.9%
Early Stage Apoptotic (7-AAD-/Annexin V+), Jurkat, 24 Hrs.; TRAIL Smooth Hydrogels [1]: 39%
Early Stage Apoptotic (7-AAD-/Annexin V+), Jurkat, 24 Hrs.; TRAIL encapsulated PLGA [1]: 7.86%
Early Stage Apoptotic (7-AAD-/Annexin V+), Jurkat, 48 Hrs.; TRAIL Magnetic Beads [1]: 13.8%
Early Stage Apoptotic (7-AAD-/Annexin V+), Jurkat, 48 Hrs.; TRAIL Porous Hydrogels [1]: 22.5%
Early Stage Apoptotic (7-AAD-/Annexin V+), Jurkat, 48 Hrs.; TRAIL Smooth Hydrogels [1]: 18.3%
Early Stage Apoptotic (7-AAD-/Annexin V+), Jurkat, 48 Hrs.; TRAIL encapsulated PLGA [1]: 3.1%
Late Stage Apoptotic (7-AAD+/Annexin V+), Jeko-1, 24 Hrs.; TRAIL Magnetic Beads [1]: 20.1%
Late Stage Apoptotic (7-AAD+/Annexin V+), Jeko-1, 24 Hrs.; TRAIL Porous Hydrogels [1]: 33.9%
Late Stage Apoptotic (7-AAD+/Annexin V+), Jeko-1, 24 Hrs.; TRAIL Smooth Hydrogels [1]: 16.9%
Late Stage Apoptotic (7-AAD+/Annexin V+), Jeko-1, 24 Hrs.; TRAIL encapsulated PLGA [1]: 5.34%
Late Stage Apoptotic (7-AAD+/Annexin V+), Jeko-1, 48 Hrs.; TRAIL Magnetic Beads [1]: 44.1%
Late Stage Apoptotic (7-AAD+/Annexin V+), Jeko-1, 48 Hrs.; TRAIL Porous Hydrogels [1]: 87.5%
Late Stage Apoptotic (7-AAD+/Annexin V+), Jeko-1, 48 Hrs.; TRAIL Smooth Hydrogels [1]: 43.1%
Late Stage Apoptotic (7-AAD+/Annexin V+), Jeko-1, 48 Hrs.; TRAIL encapsulated PLGA [1]: 13.9%
Late Stage Apoptotic (7-AAD+/Annexin V+), Jurkat, 24 Hrs.; TRAIL Magnetic Beads [1]: 14.9%
Late Stage Apoptotic (7-AAD+/Annexin V+), Jurkat, 24 Hrs.; TRAIL Porous Hydrogels [1]: 18.8%
Late Stage Apoptotic (7-AAD+/Annexin V+), Jurkat, 24 Hrs.; TRAIL Smooth Hydrogels [1]: 18%
Late Stage Apoptotic (7-AAD+/Annexin V+), Jurkat, 24 Hrs.; TRAIL encapsulated PLGA [1]: 3.17%
Late Stage Apoptotic (7-AAD+/Annexin V+), Jurkat, 48 Hrs.; TRAIL Magnetic Beads [1]: 32.9%
Late Stage Apoptotic (7-AAD+/Annexin V+), Jurkat, 48 Hrs.; TRAIL Porous Hydrogels [1]: 63.5%
Late Stage Apoptotic (7-AAD+/Annexin V+), Jurkat, 48 Hrs.; TRAIL Smooth Hydrogels [1]: 43%
Late Stage Apoptotic (7-AAD+/Annexin V+), Jurkat, 48 Hrs.; TRAIL encapsulated PLGA [1]: 5.7%
Live Cells (7-AAD-/Annexin V-), Jeko-1, 24 Hrs.; TRAIL Magnetic Beads [1]: 54%
Live Cells (7-AAD-/Annexin V-), Jeko-1, 24 Hrs.; TRAIL Porous Hydrogels [1]: 13.6%
Live Cells (7-AAD-/Annexin V-), Jeko-1, 24 Hrs.; TRAIL Smooth Hydrogels [1]: 38.2%
Live Cells (7-AAD-/Annexin V-), Jeko-1, 24 Hrs.; TRAIL encapsulated PLGA [1]: 91.5%
Live Cells (7-AAD-/Annexin V-), Jeko-1, 48 Hrs.; TRAIL Magnetic Beads [1]: 48.2%
Live Cells (7-AAD-/Annexin V-), Jeko-1, 48 Hrs.; TRAIL Porous Hydrogels [1]: 5.18%
Live Cells (7-AAD-/Annexin V-), Jeko-1, 48 Hrs.; TRAIL Smooth Hydrogels [1]: 44.8%
Live Cells (7-AAD-/Annexin V-), Jeko-1, 48 Hrs.; TRAIL encapsulated PLGA [1]: 82.4%
Live Cells (7-AAD-/Annexin V-), Jurkat, 24 Hrs.; TRAIL Magnetic Beads [1]: 62.5%
Live Cells (7-AAD-/Annexin V-), Jurkat, 24 Hrs.; TRAIL Porous Hydrogels [1]: 39.1%
Live Cells (7-AAD-/Annexin V-), Jurkat, 24 Hrs.; TRAIL Smooth Hydrogels [1]: 42.7%
Live Cells (7-AAD-/Annexin V-), Jurkat, 24 Hrs.; TRAIL encapsulated PLGA [1]: 88.6%
Live Cells (7-AAD-/Annexin V-), Jurkat, 48 Hrs.; TRAIL Magnetic Beads [1]: 49.7%
Live Cells (7-AAD-/Annexin V-), Jurkat, 48 Hrs.; TRAIL Porous Hydrogels [1]: 12%
Live Cells (7-AAD-/Annexin V-), Jurkat, 48 Hrs.; TRAIL Smooth Hydrogels [1]: 36%
Live Cells (7-AAD-/Annexin V-), Jurkat, 48 Hrs.; TRAIL encapsulated PLGA [1]: 85.6%
percentage of apoptotic cells (Annexin V-positive), Jeko-1, 24 h; TRAIL attached to magnetic beads [1]: 47.1%
percentage of apoptotic cells (Annexin V-positive), Jeko-1, 24 h; TRAIL encapsulated in PLGA microspheres [1]: 9.69%
percentage of apoptotic cells (Annexin V-positive), Jeko-1, 24 h; TRAIL on porous hydrogel microspheres [1]: 86.3%
percentage of apoptotic cells (Annexin V-positive), Jeko-1, 24 h; TRAIL on smooth hydrogel microspheres [1]: 66.3%
percentage of apoptotic cells, Jeko-1, 48 hours; TRAIL attached to magnetic beads [1]: 50.1%
percentage of apoptotic cells, Jeko-1, 48 hours; TRAIL encapsulated in PLGA microspheres [1]: 17.2%
percentage of apoptotic cells, Jeko-1, 48 hours; TRAIL on porous hydrogel microspheres [1]: 93%
percentage of apoptotic cells, Jurkat, 24 h; TRAIL attached to magnetic beads [1]: 39.5%
percentage of apoptotic cells, Jurkat, 24 h; TRAIL encapsulated in PLGA microspheres [1]: 6.45%
percentage of apoptotic cells, Jurkat, 24 h; TRAIL on porous hydrogel microspheres [1]: 78%
percentage of apoptotic cells, Jurkat, 48 h; TRAIL attached to magnetic beads [1]: 57.2%
percentage of apoptotic cells, Jurkat, 48 h; TRAIL encapsulated in PLGA microspheres [1]: 7.87%
percentage of apoptotic cells, Jurkat, 48 h; TRAIL on porous hydrogel microspheres [1]: 81.4%
percentage of early apoptotic cells, Jeko-1, 24 h; TRAIL on porous hydrogel microspheres (text value; Table 4A prints 52.1) [1]: 52.3%
Substance: Biotinylated Fc-TRAIL: active fragment of the human TRAIL protein comprising SEQ ID NO: 2 with a mouse IgG2a-Fc Tag at the N-terminus (ACROBiosystems TRLH52591MG), biotinylated with Oyo-link single biotin (from UniProt P50591 114-281) (Fc fusion)
Necrotic (7-AAD+/Annexin V-), Jeko-1, 24 Hrs.; TRAIL Magnetic Beads [1]: 0.12%
Necrotic (7-AAD+/Annexin V-), Jeko-1, 24 Hrs.; TRAIL Porous Hydrogels [1]: 0.34%
Necrotic (7-AAD+/Annexin V-), Jeko-1, 24 Hrs.; TRAIL Smooth Hydrogels [1]: 0.1%
Necrotic (7-AAD+/Annexin V-), Jeko-1, 24 Hrs.; TRAIL encapsulated PLGA [1]: 0.088%
Necrotic (7-AAD+/Annexin V-), Jeko-1, 48 Hrs.; TRAIL Magnetic Beads [1]: 1.08%
Necrotic (7-AAD+/Annexin V-), Jeko-1, 48 Hrs.; TRAIL Smooth Hydrogels [1]: 0.17%
Necrotic (7-AAD+/Annexin V-), Jeko-1, 48 Hrs.; TRAIL encapsulated PLGA [1]: 0.62%
Necrotic (7-AAD+/Annexin V-), Jurkat, 24 Hrs.; TRAIL Magnetic Beads [1]: 0.28%
Necrotic (7-AAD+/Annexin V-), Jurkat, 24 Hrs.; TRAIL Porous Hydrogels [1]: 0.18%
Necrotic (7-AAD+/Annexin V-), Jurkat, 24 Hrs.; TRAIL Smooth Hydrogels [1]: 0.23%
Necrotic (7-AAD+/Annexin V-), Jurkat, 24 Hrs.; TRAIL encapsulated PLGA [1]: 0.36%
Necrotic (7-AAD+/Annexin V-), Jurkat, 48 Hrs.; TRAIL Magnetic Beads [1]: 3.61%
Necrotic (7-AAD+/Annexin V-), Jurkat, 48 Hrs.; TRAIL Porous Hydrogels [1]: 2.1%
Necrotic (7-AAD+/Annexin V-), Jurkat, 48 Hrs.; TRAIL Smooth Hydrogels [1]: 2.67%
Necrotic (7-AAD+/Annexin V-), Jurkat, 48 Hrs.; TRAIL encapsulated PLGA [1]: 5.61%

# of STV molecules/bead (molecules/bead) (streptavidin [2]): 120000
# of STV molecules/bead (molecules/bead) (streptavidin [3]): 20100
# of STV molecules/bead (molecules/bead) (streptavidin [4]): 20100
Substance: PE-anti-streptavidin antibody (BioLegend, clone: 3A20.2)

Early Stage Apoptotic (7-AAD-/Annexin V+), Jeko-1, 24 Hrs.; Soluble TRAIL [1]: 35.8%
Early Stage Apoptotic (7-AAD-/Annexin V+), Jeko-1, 48 Hrs.; Soluble TRAIL [1]: 9.88%
Early Stage Apoptotic (7-AAD-/Annexin V+), Jurkat, 24 Hrs.; Soluble TRAIL [1]: 51.1%
Early Stage Apoptotic (7-AAD-/Annexin V+), Jurkat, 48 Hrs.; Soluble TRAIL [1]: 20.4%
Late Stage Apoptotic (7-AAD+/Annexin V+), Jeko-1, 24 Hrs.; Soluble TRAIL [1]: 26.4%
Late Stage Apoptotic (7-AAD+/Annexin V+), Jeko-1, 48 Hrs.; Soluble TRAIL [1]: 59.7%
Late Stage Apoptotic (7-AAD+/Annexin V+), Jurkat, 24 Hrs.; Soluble TRAIL [1]: 22.5%
Late Stage Apoptotic (7-AAD+/Annexin V+), Jurkat, 48 Hrs.; Soluble TRAIL [1]: 56.9%
Live Cells (7-AAD-/Annexin V-), Jeko-1, 24 Hrs.; Soluble TRAIL [1]: 37.8%
Live Cells (7-AAD-/Annexin V-), Jeko-1, 48 Hrs.; Soluble TRAIL [1]: 30.2%
Live Cells (7-AAD-/Annexin V-), Jurkat, 24 Hrs.; Soluble TRAIL [1]: 26.3%
Live Cells (7-AAD-/Annexin V-), Jurkat, 48 Hrs.; Soluble TRAIL [1]: 21.3%
percentage of apoptotic cells (Annexin V-positive), Jeko-1, 24 h; soluble TRAIL protein [1]: 60.7%
percentage of apoptotic cells, Jeko-1, 48 hours; soluble TRAIL protein [1]: 69.8%
percentage of apoptotic cells, Jurkat, 24 h; soluble TRAIL protein [1]: 72.9%
percentage of apoptotic cells, Jurkat, 48 h; soluble TRAIL protein [1]: 73%
Substance: soluble TRAIL protein (ligand)
Necrotic (7-AAD+/Annexin V-), Jeko-1, 24 Hrs.; Soluble TRAIL [1]: 0.076%
Necrotic (7-AAD+/Annexin V-), Jeko-1, 48 Hrs.; Soluble TRAIL [1]: 0.16%
Necrotic (7-AAD+/Annexin V-), Jurkat, 24 Hrs.; Soluble TRAIL [1]: 0.11%
Necrotic (7-AAD+/Annexin V-), Jurkat, 48 Hrs.; Soluble TRAIL [1]: 1.42%
